Measured values published in ChEMBL document CHEMBL2073804, “Transport of the beta -O-glucuronide conjugate of the tobacco-specific carcinogen 4-(methylnitrosamino)-1-(3-pyridyl)-1-butanol (NNAL) by the multidrug resistance protein 1 (MRP1). Requirement for glutathione or a non-sulfur-containing analog” (J Biol Chem, 2001).

Substrate: CN(CCCC(C[C@@H]1O[C@H](C(=O)O)[C@@H](O)[C@H](O)[C@H]1O)c1cccnc1)N=O
Assay: TP_TRANSPORTER: uptake, in the presence of GSH in membrane vesicle from MRP1-expressing T5 HeLa cell
Type: functional, cell membranes

B1: Multidrug resistance-associated protein 1 (Homo sapiens) (protein)
chain: MALRGFCSADGSDPLWDWNVTWNTSNPDFTKCFQNTVLVWVPCFYLWACFPFYFLYLSRHDRGYIQMTPLNKTKTALGFLLWIVCWADLFYSFWERSRGIFLAPVFLVSPTLLGITMLLATFLIQLERRKGVQSSGIMLTFWLVALVCALAILRSKIMTALKEDAQVDLFRDITFYVYFSLLLIQLVLSCFSDRSPLFSETIHDPNPCPESSASFLSRITFWWITGLIVRGYRQPLEGSDLWSLNKEDTSEQVVPVLVKNWKKECAKTRKQPVKVVYSSKDPAQPKESSKVDANEEVEALIVKSPQKEWNPSLFKVLYKTFGPYFLMSFFFKAIHDLMMFSGPQILKLLIKFVNDTKAPDWQGYFYTVLLFVTACLQTLVLHQYFHICFVSGMRIKTAVIGAVYRKALVITNSARKSSTVGEIVNLMSVDAQRFMDLATYINMIWSAPLQVILALYLLWLNLGPSVLAGVAVMVLMVPVNAVMAMKTKTYQVAHMKSKDNRIKLMNEILNGIKVLKLYAWELAFKDKVLAIRQEELKVLKKSAYLSAVGTFTWVCTPFLVALCTFAVYVTIDENNILDAQTAFVSLALFNILRFPLNILPMVISSIVQASVSLKRLRIFLSHEELEPDSIERRPVKDGGGTNSITVRNATFTWARSDPPTLNGITFSIPEGALVAVVGQVGCGKSSLLSALLAEMDKVEGHVAIKGSVAYVPQQAWIQNDSLRENILFGCQLEEPYYRSVIQACALLPDLEILPSGDRTEIGEKGVNLSGGQKQRVSLARAVYSNADIYLFDDPLSAVDAHVGKHIFENVIGPKGMLKNKTRILVTHSMSYLPQVDVIIVMSGGKISEMGSYQELLARDGAFAEFLRTYASTEQEQDAEENGVTGVSGPGKEAKQMENGMLVTDSAGKQLQRQLSSSSSYSGDISRHHNSTAELQKAEAKKEETWKLMEADKAQTGQVKLSVYWDYMKAIGLFISFLSIFLFMCNHVSALASNYWLSLWTDDPIVNGTQEHTKVRLSVYGALGISQGIAVFGYSMAVSIGGILASRCLHVDLLHSILRSPMSFFERTPSGNLVNRFSKELDTVDSMIPEVIKMFMGSLFNVIGACIVILLATPIAAIIIPPLGLIYFFVQRFYVASSRQLKRLESVSRSPVYSHFNETLLGVSVIRAFEEQERFIHQSDLKVDENQKAYYPSIVANRWLAVRLECVGNCIVLFAALFAVISRHSLSAGLVGLSVSYSLQVTTYLNWLVRMSSEMETNIVAVERLKEYSETEKEAPWQIQETAPPSSWPQVGRVEFRNYCLRYREDLDFVLRHINVTINGGEKVGIVGRTGAGKSSLTLGLFRINESAEGEIIIDGINIAKIGLHDLRFKITIIPQDPVLFSGSLRMNLDPFSQYSDEEVWTSLELAHLKDFVSALPDKLDHECAEGGENLSVGQRQLVCLARALLRKTKILVLDEATAAVDLETDDLIQSTIRTQFEDCTVLTIAHRLNTIMDYTRVIVLDKGEIQEYGAPSDLLQQRGLFYSMAKDAGLV
- Km: 39 µM
